Results published in patent US20250382384A1 (BEONE MEDICINES I, published 2025).

What was measured:
[1] = target: T1, full-length human MUC1 on stably transfected cells (human, UniProt P15941 24-1255); assay: FACS (iQue3) on HEK293-hMUC1 cells
T1 construct: also called HEK293/human MUC1; HEK293-hMUC1

[2] = target: T1, full-length human MUC1 on stably …; assay: FACS on HEK293-MUC1 cells, anti-His detection
MUC1-SEA-mIgG2a = target: T2, MUC1-SEA-mIgG2a (human; mouse, UniProt P15941 1036-1155); assay: SPR (Biacore 8K, 25 C), MUC1-SEA-mIgG2a captured by anti-mouse Fc, scFv analyte
T2 construct: also called huMUC1-SEA-mIgG2a; human MUC1-mFc; not shown: Fc domain of mouse IgG2a fused to the C-terminus of the SEA domain
T2 sequence: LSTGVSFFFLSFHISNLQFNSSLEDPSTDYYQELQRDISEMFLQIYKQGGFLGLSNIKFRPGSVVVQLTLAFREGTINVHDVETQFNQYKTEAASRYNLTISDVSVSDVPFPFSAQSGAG

[3] = target: T3, native human MUC1 on tumour cell lines (human, UniProt P15941 24-1255); assay: FACS on live ZR-75 cells
T3 construct: whole, on cells; also called native MUC1; ZR-75
T3 sequence (P15941 24-1255): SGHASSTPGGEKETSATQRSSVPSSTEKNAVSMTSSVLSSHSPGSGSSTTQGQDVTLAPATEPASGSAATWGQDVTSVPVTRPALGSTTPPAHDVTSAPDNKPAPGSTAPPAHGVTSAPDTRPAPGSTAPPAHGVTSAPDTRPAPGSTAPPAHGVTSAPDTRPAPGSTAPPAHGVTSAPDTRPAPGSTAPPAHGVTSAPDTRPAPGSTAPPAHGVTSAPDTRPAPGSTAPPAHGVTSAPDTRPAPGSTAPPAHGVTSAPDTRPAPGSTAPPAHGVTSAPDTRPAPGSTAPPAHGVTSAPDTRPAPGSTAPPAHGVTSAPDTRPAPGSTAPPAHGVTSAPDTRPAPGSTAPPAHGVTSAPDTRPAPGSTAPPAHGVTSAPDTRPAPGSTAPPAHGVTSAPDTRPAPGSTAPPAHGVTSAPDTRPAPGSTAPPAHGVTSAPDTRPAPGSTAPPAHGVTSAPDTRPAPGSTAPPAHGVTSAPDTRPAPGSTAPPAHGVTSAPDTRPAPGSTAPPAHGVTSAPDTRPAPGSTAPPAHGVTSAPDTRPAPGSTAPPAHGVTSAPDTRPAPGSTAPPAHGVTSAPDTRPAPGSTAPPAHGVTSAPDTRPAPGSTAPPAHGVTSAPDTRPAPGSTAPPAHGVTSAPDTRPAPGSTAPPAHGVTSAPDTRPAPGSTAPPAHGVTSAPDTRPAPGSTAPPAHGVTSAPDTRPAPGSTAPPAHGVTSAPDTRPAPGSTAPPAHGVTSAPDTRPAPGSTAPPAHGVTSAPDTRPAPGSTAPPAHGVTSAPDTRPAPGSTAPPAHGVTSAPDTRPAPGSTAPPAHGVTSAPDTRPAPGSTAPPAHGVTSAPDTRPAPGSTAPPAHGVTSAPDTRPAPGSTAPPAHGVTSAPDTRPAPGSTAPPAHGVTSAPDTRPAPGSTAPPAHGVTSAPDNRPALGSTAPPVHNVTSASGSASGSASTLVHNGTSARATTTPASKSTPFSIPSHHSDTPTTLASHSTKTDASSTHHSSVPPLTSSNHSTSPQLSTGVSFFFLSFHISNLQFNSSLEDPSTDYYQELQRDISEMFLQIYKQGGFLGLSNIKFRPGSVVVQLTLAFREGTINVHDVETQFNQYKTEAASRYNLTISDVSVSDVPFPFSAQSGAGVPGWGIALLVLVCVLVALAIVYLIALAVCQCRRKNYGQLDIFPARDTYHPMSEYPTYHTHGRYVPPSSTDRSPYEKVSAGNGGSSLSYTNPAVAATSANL

T1 sequence (P15941 24-1255 limits assumed): as the sequence (P15941 24-1255) above

B1: huBG138P-Hz1 (antibody, V domains shown)
VH: QVQLVQSGAEVKKPGASVKVSCKASGYTFTTYTMHWVRQAPGQRLEWMGYINPGSDYTHYNQKFKDRVTITADTSASTAYMELSSLRSEDTAVYYCARQGNYAAYYFDYWGQGTLVTVSS
VL: DIQMTQSPSSLSASVGDRVTITCRASGNIHNFLVWYQQKPGKVPKLLIYNAKTLTSGVPSRFSGSGSGTDYTLTISSLQPEDVATYYCQNFWNVPFTFGQGTKLEIK
notes: humanized; constant regions not restated (IgG1/Ckappa vector used for the first round)
EC50 (read off the curve) [1]: ~5 nM

B2: huBG138P-Hz4 (antibody, V domains shown)
VH: QVQLVQSGAEVKKPGASVKVSCKASGYTFTTYTMHWVRQAPGQGLEWMGYINPGSDYTHYNQKFKDRVTITADKSASTAYMELSSLRSEDTAVYYCARQGNYAAYYFDYWGQGTLVTVSS
VL: DIQMTQSPSSLSASVGDRVTITCRASGNIHNFLVWYQQKPGKSPKLLIYNAKTLTSGVPSRFSGSGSGTQYTLTISSLQPEDVATYYCQNFWNVPFTFGQGTKLEIK
notes: humanized; constant regions not restated
EC50 (read off the curve) [1]: ~3 nM

B3: huBG138P-Hz3 (antibody, V domains shown)
VH: QVQLVQSGAEVKKPGASVKVSCKASGYTFTTYTMHWVRQAPGQGLEWMGYINPGSDYTHYNQKFKDRVTITADKSASTAYMELSSLRSEDTAVYYCARQGNYAAYYFDYWGQGTLVTVSS
VL: DIQMTQSPSSLSASVGDRVTITCRASGNIHNFLVWYQQKPGKVPKLLIYNAKTLTSGVPSRFSGSGSGTDYTLTISSLQPEDVATYYCQNFWNVPFTFGQGTKLEIK
notes: as for B2
EC50 (read off the curve) [1]: ~5 nM

B4: scFv3-20P (scFv)
scFv: QVQLVQSGAEVKKPGASVKVSCKASGYTFTNYWINWVRQAPGQGLEWMGEIDPSDAYTNNNQKFQGRVTMTVDTSTSTAYMELSSLRSEDTAVYYCARGRRTGFAYWGQGTLVTVSSGGGGSGGGGSGGGGSGGGGSDIQMTQSPSSLSASVGDRVTITCRASENIYSNLAWYQQKPGKAPKLLIYAATNLADGVPSRFSGSGSGTDYTLTISSLQPEDFATYYCQHFWGTPYTFGQGTKLEIKHHHHHH
notes: Humanized BG346P scFv; His tag from the stated format of the BG346P scFv constructs; also called BG346P-scFv3-20P
EC50 [2]: 16.1 nM
Kd (MUC1-SEA-mIgG2a): 67.1 nM
koff (MUC1-SEA-mIgG2a): 0.0202 s⁻¹
kon (MUC1-SEA-mIgG2a): 301000 M⁻¹ s⁻¹

B5: huBG219P-Bz0 (antibody, IgG1, V domains shown)
VH: EVQLLESGGGLVQPGGSLRLSCAASGFTFNDYIMSWVRQAPGKGLEWVATVSSGGDNTYYPDSVKGRFTISRDNSKNTLYLQMNSLRAEDTAVYYCTRYGGLGAMDYWGQGTLVTVSS
VL: DIQMTQSPSSLSASVGERVTITCRASGNIHNYLTWYQQKPGKSPKLLVYNAKTLADGVPSRFSGSGSGPDYTLTISSLQPEDFATYYCQHFWSVPYTFGQGTKLEIK
notes: human wild-type IgG1 / kappa
EC50 [3]: 20.9 nM
